Reference: US20120082667A1 (IMMUNAS PHARMA, published 2012)

B1: AL-221 antibody (antibody, IgG2b, V domains shown)
VH: QVTLKESGPGILKPSQTLSLTCSFSGFSLSTSGMGVGWIRQPSGKGLEWLAHIWWDDDKYYNPSLKSQLTISKDTSRNQVFLKITSVDTADTATYYCARRSLSRDYFDYWGQGTTLTVSS
VL: DVLMTQTPLSLPVSLGDQASISCRSSQSIVHSNGNTYLEWYLQKPGQSPKLLIYKVSNRFSGVPDRFSGSGSGTDFTLKISRVEAEDLGVYYCFQGSHVPLTFGAGTKLELK
B2: AL-204 antibody (antibody, V domains shown)
VH: EVQLVESGGGLVKPGGSLKLSCAASGFTFSDYYMYWVRQTPEKRLEWVATISDGGSYTYYPDSVKGRFTISRDNAKNNLYLQMSSLKSEDTAMYYCARAKYYRYDGGGAYAMDYWGQGTSVTVSS
VL: NIMMTQSPSSLAVSAGEKVTMSCKSSQSVLYSSNQKNYLAWYQQKPGQSPKLLIYWASTRESGVPDRFTGSGSGTDFTLTISSVQAEDLAVYYCHQYLSSYTFGGGTKLEIK

What was measured:
[1] = target: T1, A beta oligomer prepared from synthetic A beta1-40 (HCl form), 0.1 mg/ml in PBS, incubated at 37 degrees C … (UniProt P05067 672-711); assay: dot blot: peptide spotted on nitrocellulose (0.1 micro g/dot), hybridoma culture supernatant, HRP anti-mouse IgG, ECL
T1 construct: domain: A beta1-40; non-fibrous assembly of A beta1-40; also called A beta1-40 oligomer; A beta40 oligomer
Experimental: (§1) Dot blot analysis was carried out for hybridomas that gave positive result for primary screening. […] The membrane was blocked with Tris Buffer containing 5% low-fat milk and 0.05% Tween-20, and reacted with hybridoma culture supernatants and detected with chemiluminescence kit (ECL) after reacting with HRP-conjugated anti-mouse IgG antibody.

[2] = target: T2, synthesized A beta1-42 (UniProt P05067 672-713); assay: as above
T2 construct: domain: A beta1-42; spotted in the dot blot as the second of the two types of oligomers; also called A beta42 oligomer
Experimental: as §1

[3] = target: T3, A beta monomer prepared from synthetic A beta1-40 (TFA form), 0.1 mg/ml in PBS (UniProt P05067 672-711); assay: as above
T3 construct: domain: A beta1-40; also called A beta1-40 monomer; A beta40 monomer
Experimental: as §1

[4] = target: T2, synthesized A beta1-42; assay: dot blot, synthesized A beta1-42 spotted, hybridoma supernatant
Experimental: as §1

Binder | binding result [1] | binding result [2] | binding result [3] | binding result [4]
B1 | binds | binds | binds | 
B2 |  |  |  | binds
